Tests used:
Assay in all cases: holdup assay
Set-up in all cases: key: below the threshold = too weak to quantify, mostly under pKd 3.1 to 4
PTPN3, P26045 = biological target: PTPN3, P26045
MAGI2_6, Q86UL8 = biological target: MAGI2_6, Q86UL8
LNX1_1, Q8TBB1 = biological target: LNX1_1, Q8TBB1
MAGI2_5, Q86UL8 = biological target: MAGI2_5, Q86UL8
LNX2_2, Q8N448 = biological target: T1, LNX2_2, Q8N448
T1 sequence (Q8N448 334-432, limits assumed, looked up): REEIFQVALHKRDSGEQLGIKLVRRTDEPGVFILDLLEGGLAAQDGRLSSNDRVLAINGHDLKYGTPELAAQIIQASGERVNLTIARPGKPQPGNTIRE

DLG1_1, Q12959 = biological target: DLG1_1, Q12959
APBA2_2, Q99767 = biological target: T2, APBA2_2, Q99767
T2 sequence (Q99767 654-744, limits assumed, looked up): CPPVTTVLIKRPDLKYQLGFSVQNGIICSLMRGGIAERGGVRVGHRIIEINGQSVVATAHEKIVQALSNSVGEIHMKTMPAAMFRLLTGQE

DLG4_3, P78352 = biological target: DLG4_3, P78352
PDZD7_3, Q9H5P4 = biological target: T3, PDZD7_3, Q9H5P4
T3 sequence (Q9H5P4 857-944, limits assumed, looked up): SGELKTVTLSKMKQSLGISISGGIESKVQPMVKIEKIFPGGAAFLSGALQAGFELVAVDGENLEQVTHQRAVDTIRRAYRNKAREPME

PDZRN4_1, Q6ZMN7 = biological target: PDZRN4_1, Q6ZMN7
APBA3_1, O96018 = biological target: T4, APBA3_1, O96018
T4 sequence (O96018 389-490, limits assumed, looked up): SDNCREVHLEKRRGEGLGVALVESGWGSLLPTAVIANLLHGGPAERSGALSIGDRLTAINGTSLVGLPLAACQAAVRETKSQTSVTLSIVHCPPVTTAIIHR

AHNAK1, Q09666 = biological target: AHNAK1, Q09666
Inadl_1, Q8NI35 = biological target: Inadl_1, Q8NI35
LNX1_2, Q8TBB1 = biological target: LNX1_2, Q8TBB1
SHANK1, Q9Y566 = biological target: T5, SHANK1, Q9Y566
T5 sequence (Q9Y566 658-767, limits assumed, looked up): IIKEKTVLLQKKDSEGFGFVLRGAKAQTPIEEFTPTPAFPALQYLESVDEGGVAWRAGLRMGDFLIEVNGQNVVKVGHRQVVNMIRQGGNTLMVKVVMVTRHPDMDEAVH

FRMPD4, Q14CM0 = biological target: FRMPD4, Q14CM0
Inadl_9, Q8NI35 = biological target: Inadl_9, Q8NI35
LIMK2, P53671 = biological target: LIMK2, P53671
MPDZ_12, O75970 = biological target: T6, MPDZ_12, O75970
T6 sequence (O75970 1857-1958, limits assumed, looked up): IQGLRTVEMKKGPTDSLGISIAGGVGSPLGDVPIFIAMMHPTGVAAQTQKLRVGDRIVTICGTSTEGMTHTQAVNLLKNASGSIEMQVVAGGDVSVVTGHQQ

Inadl_3, Q8NI35 = biological target: Inadl_3, Q8NI35
DLG2_2, Q15700 = biological target: DLG2_2, Q15700
HTRA4, P83105 = biological target: T7, HTRA4, P83105
T7 sequence (P83105 378-476, limits assumed, looked up): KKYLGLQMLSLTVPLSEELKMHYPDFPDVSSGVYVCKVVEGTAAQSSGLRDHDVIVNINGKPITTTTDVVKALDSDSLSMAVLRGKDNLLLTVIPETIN

RAPGEF6, Q8TEU7 = biological target: T8, RAPGEF6, Q8TEU7
T8 sequence (Q8TEU7 525-625, limits assumed, looked up): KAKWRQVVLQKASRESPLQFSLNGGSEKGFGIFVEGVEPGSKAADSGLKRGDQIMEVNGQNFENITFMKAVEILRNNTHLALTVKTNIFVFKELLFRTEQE

PTPN13_1, Q12923 = biological target: T9, PTPN13_1, Q12923
T9 sequence (Q12923 1088-1188, limits assumed, looked up): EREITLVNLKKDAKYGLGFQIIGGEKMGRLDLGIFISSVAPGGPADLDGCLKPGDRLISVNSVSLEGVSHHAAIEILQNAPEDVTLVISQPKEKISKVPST

NHERF3_4, Q5T2W1 = biological target: T10, NHERF3_4, Q5T2W1
T10 sequence (Q5T2W1 373-468, limits assumed, looked up): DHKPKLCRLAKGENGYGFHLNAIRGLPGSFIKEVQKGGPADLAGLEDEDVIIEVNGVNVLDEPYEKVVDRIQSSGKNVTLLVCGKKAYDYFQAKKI

DLG4_2, P78352 = biological target: DLG4_2, P78352
GRIP1_5, Q9Y3R0 = biological target: T11, GRIP1_5, Q9Y3R0
T11 sequence (Q9Y3R0 568-668, limits assumed, looked up): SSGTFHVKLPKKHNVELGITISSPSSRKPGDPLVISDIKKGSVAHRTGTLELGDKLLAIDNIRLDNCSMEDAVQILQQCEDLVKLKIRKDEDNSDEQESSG

[1] = plain residues with an end cap or a label only (N-terminal biotin on a linker: ado-ado)
[2] = modified: phospho on T at position -2 from the C-terminal residue

Chain of DLG4_3, P78352 (P78352 306-403): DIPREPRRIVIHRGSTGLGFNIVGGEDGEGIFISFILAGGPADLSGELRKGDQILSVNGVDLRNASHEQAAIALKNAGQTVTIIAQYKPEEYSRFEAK
Chain of PTPN3, P26045 (P26045 505-587): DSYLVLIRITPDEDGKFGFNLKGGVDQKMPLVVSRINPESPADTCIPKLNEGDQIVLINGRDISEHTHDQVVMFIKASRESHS
Chain of DLG4_2, P78352 (P78352 155-259): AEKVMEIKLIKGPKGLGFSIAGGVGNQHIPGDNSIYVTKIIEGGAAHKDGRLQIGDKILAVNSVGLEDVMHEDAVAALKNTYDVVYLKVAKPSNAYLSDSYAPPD
Chain of DLG2_2, Q15700 (Q15700 189-283): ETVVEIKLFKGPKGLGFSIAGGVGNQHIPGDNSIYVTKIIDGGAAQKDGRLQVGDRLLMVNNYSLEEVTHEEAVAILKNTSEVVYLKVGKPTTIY
Chain of MAGI2_5, Q86UL8 (Q86UL8 915-1017): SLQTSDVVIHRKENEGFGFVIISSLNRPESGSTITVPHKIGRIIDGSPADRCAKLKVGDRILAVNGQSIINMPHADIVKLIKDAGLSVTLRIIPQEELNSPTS
Chain of Inadl_9, Q8NI35 (Q8NI35 1530-1615): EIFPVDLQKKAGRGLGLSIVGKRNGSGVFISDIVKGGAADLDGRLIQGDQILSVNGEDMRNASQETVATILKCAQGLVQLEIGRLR
Chain of MAGI2_6, Q86UL8 (Q86UL8 1141-1229): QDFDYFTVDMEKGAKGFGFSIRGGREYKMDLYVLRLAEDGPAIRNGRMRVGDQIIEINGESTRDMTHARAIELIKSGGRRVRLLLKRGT
Chain of FRMPD4, Q14CM0 (Q14CM0 67-160): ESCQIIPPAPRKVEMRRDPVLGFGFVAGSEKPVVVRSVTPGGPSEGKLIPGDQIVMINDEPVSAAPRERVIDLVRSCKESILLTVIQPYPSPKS
Chain of Inadl_1, Q8NI35 (Q8NI35 113-229): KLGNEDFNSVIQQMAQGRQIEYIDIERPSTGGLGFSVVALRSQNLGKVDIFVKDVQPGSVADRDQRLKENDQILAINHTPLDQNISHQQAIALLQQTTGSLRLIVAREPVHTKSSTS
Chain of AHNAK1, Q09666 (Q09666 4-100): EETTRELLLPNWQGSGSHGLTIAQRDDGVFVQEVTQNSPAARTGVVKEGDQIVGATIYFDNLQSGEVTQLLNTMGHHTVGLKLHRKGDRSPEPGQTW
Chain of LNX1_2, Q8TBB1 (Q8TBB1 371-470): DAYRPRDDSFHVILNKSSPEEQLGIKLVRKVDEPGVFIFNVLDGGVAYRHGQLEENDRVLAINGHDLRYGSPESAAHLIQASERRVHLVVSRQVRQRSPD
Chain of Inadl_3, Q8NI35 (Q8NI35 359-469): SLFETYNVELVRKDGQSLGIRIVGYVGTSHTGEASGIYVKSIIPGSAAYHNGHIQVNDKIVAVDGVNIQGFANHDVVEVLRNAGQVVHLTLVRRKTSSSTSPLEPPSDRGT
Chain of LIMK2, P53671 (P53671 143-248): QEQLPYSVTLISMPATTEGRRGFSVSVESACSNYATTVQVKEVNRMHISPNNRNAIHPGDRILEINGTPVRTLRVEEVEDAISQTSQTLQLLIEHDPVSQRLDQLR
Chain of PDZRN4_1, Q6ZMN7 (Q6ZMN7 213-318): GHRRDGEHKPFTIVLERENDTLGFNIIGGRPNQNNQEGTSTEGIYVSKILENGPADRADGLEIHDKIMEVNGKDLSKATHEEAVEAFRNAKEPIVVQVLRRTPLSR
Chain of LNX1_1, Q8TBB1 (Q8TBB1 261-371): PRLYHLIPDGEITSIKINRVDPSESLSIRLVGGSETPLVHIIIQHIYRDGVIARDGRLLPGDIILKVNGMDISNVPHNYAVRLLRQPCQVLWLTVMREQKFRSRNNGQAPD

EDGESWEYQI [TRPV6, Q9H1D0]
pKd (PTPN3, P26045; [1]): 4.13
pKd (MAGI2_6, Q86UL8; [1]): 3.55
pKd (LNX1_1, Q8TBB1; [1]): below the threshold
pKd (MAGI2_5, Q86UL8; [1]): below the threshold
pKd (LNX2_2, Q8N448; [1]): below the threshold
pKd (DLG1_1, Q12959; [1]): below the threshold
pKd (APBA2_2, Q99767; [1]): below the threshold
pKd (DLG4_3, P78352; [1]): below the threshold
pKd (PDZD7_3, Q9H5P4; [1]): below the threshold
pKd (PDZRN4_1, Q6ZMN7; [1]): below the threshold
pKd (APBA3_1, O96018; [1]): below the threshold
pKd (AHNAK1, Q09666; [1]): below the threshold
pKd (Inadl_1, Q8NI35; [1]): 4.41
pKd (LNX1_2, Q8TBB1; [1]): below the threshold
pKd (SHANK1, Q9Y566; [1]): below the threshold
pKd (FRMPD4, Q14CM0; [1]): 3.73
pKd (Inadl_9, Q8NI35; [1]): 3.83
pKd (LIMK2, P53671; [1]): below the threshold
pKd (MPDZ_12, O75970; [1]): below the threshold
pKd (Inadl_3, Q8NI35; [1]): 5.33
pKd (DLG2_2, Q15700; [1]): below the threshold
pKd (HTRA4, P83105; [1]): below the threshold
pKd (RAPGEF6, Q8TEU7; [1]): below the threshold
pKd (PTPN13_1, Q12923; [1]): below the threshold
pKd (NHERF3_4, Q5T2W1; [1]): below the threshold
pKd (DLG4_2, P78352; [1]): below the threshold
pKd (GRIP1_5, Q9Y3R0; [1]): below the threshold

SSRTRRETQL [HPV16-E6_-2P, P03126]
pKd (PTPN3, P26045; [2]): 3.92
pKd (MAGI2_6, Q86UL8; [2]): below the threshold
pKd (LNX1_1, Q8TBB1; [2]): below the threshold
pKd (MAGI2_5, Q86UL8; [2]): below the threshold
pKd (LNX2_2, Q8N448; [2]): below the threshold
pKd (DLG1_1, Q12959; [2]): below the threshold
pKd (APBA2_2, Q99767; [2]): below the threshold
pKd (DLG4_3, P78352; [2]): below the threshold
pKd (PDZD7_3, Q9H5P4; [2]): below the threshold
pKd (PDZRN4_1, Q6ZMN7; [2]): below the threshold
pKd (APBA3_1, O96018; [2]): below the threshold
pKd (AHNAK1, Q09666; [2]): below the threshold
pKd (Inadl_1, Q8NI35; [2]): below the threshold
pKd (LNX1_2, Q8TBB1; [2]): below the threshold
pKd (SHANK1, Q9Y566; [2]): below the threshold
pKd (FRMPD4, Q14CM0; [2]): 3.88
pKd (Inadl_9, Q8NI35; [2]): below the threshold
pKd (LIMK2, P53671; [2]): below the threshold
pKd (MPDZ_12, O75970; [2]): below the threshold
pKd (Inadl_3, Q8NI35; [2]): below the threshold
pKd (DLG2_2, Q15700; [2]): below the threshold
pKd (HTRA4, P83105; [2]): below the threshold
pKd (RAPGEF6, Q8TEU7; [2]): below the threshold
pKd (PTPN13_1, Q12923; [2]): below the threshold
pKd (NHERF3_4, Q5T2W1; [2]): below the threshold
pKd (DLG4_2, P78352; [2]): below the threshold
pKd (GRIP1_5, Q9Y3R0; [2]): below the threshold

PYSESDDDWC [CACNA1A, O00555]
pKd (PTPN3, P26045; [1]): 4.15
pKd (MAGI2_6, Q86UL8; [1]): 4.17
pKd (LNX1_1, Q8TBB1; [1]): below the threshold
pKd (MAGI2_5, Q86UL8; [1]): below the threshold
pKd (LNX2_2, Q8N448; [1]): 4
pKd (DLG1_1, Q12959; [1]): below the threshold
pKd (APBA2_2, Q99767; [1]): below the threshold
pKd (DLG4_3, P78352; [1]): below the threshold
pKd (PDZD7_3, Q9H5P4; [1]): below the threshold
pKd (PDZRN4_1, Q6ZMN7; [1]): below the threshold
pKd (APBA3_1, O96018; [1]): below the threshold
pKd (AHNAK1, Q09666; [1]): below the threshold
pKd (Inadl_1, Q8NI35; [1]): below the threshold
pKd (LNX1_2, Q8TBB1; [1]): below the threshold
pKd (SHANK1, Q9Y566; [1]): below the threshold
pKd (FRMPD4, Q14CM0; [1]): 4.01
pKd (Inadl_9, Q8NI35; [1]): below the threshold
pKd (LIMK2, P53671; [1]): below the threshold
pKd (MPDZ_12, O75970; [1]): 3.92
pKd (Inadl_3, Q8NI35; [1]): below the threshold
pKd (DLG2_2, Q15700; [1]): below the threshold
pKd (HTRA4, P83105; [1]): below the threshold
pKd (RAPGEF6, Q8TEU7; [1]): below the threshold
pKd (PTPN13_1, Q12923; [1]): below the threshold
pKd (NHERF3_4, Q5T2W1; [1]): below the threshold
pKd (DLG4_2, P78352; [1]): below the threshold
pKd (GRIP1_5, Q9Y3R0; [1]): below the threshold

RQKEVRESKC [SCN8A, Q9UQD0]
pKd (PTPN3, P26045; [1]): 4.6
pKd (MAGI2_6, Q86UL8; [1]): below the threshold
pKd (LNX1_1, Q8TBB1; [1]): below the threshold
pKd (MAGI2_5, Q86UL8; [1]): 3.61
pKd (LNX2_2, Q8N448; [1]): below the threshold
pKd (DLG1_1, Q12959; [1]): below the threshold
pKd (APBA2_2, Q99767; [1]): below the threshold
pKd (DLG4_3, P78352; [1]): 4.6
pKd (PDZD7_3, Q9H5P4; [1]): 3.85
pKd (PDZRN4_1, Q6ZMN7; [1]): below the threshold
pKd (APBA3_1, O96018; [1]): below the threshold
pKd (AHNAK1, Q09666; [1]): below the threshold
pKd (Inadl_1, Q8NI35; [1]): below the threshold
pKd (LNX1_2, Q8TBB1; [1]): below the threshold
pKd (SHANK1, Q9Y566; [1]): below the threshold
pKd (FRMPD4, Q14CM0; [1]): below the threshold
pKd (Inadl_9, Q8NI35; [1]): below the threshold
pKd (LIMK2, P53671; [1]): below the threshold
pKd (MPDZ_12, O75970; [1]): below the threshold
pKd (Inadl_3, Q8NI35; [1]): below the threshold
pKd (DLG2_2, Q15700; [1]): below the threshold
pKd (HTRA4, P83105; [1]): below the threshold
pKd (RAPGEF6, Q8TEU7; [1]): below the threshold
pKd (PTPN13_1, Q12923; [1]): below the threshold
pKd (NHERF3_4, Q5T2W1; [1]): below the threshold
pKd (DLG4_2, P78352; [1]): 3.52
pKd (GRIP1_5, Q9Y3R0; [1]): below the threshold

AQRARSPSDV [GPR12, P47775]
pKd (PTPN3, P26045; [1]): 3.98
pKd (MAGI2_6, Q86UL8; [1]): below the threshold
pKd (LNX1_1, Q8TBB1; [1]): 3.79
pKd (MAGI2_5, Q86UL8; [1]): below the threshold
pKd (LNX2_2, Q8N448; [1]): 3.57
pKd (DLG1_1, Q12959; [1]): below the threshold
pKd (APBA2_2, Q99767; [1]): below the threshold
pKd (DLG4_3, P78352; [1]): below the threshold
pKd (PDZD7_3, Q9H5P4; [1]): 3.48
pKd (PDZRN4_1, Q6ZMN7; [1]): below the threshold
pKd (APBA3_1, O96018; [1]): below the threshold
pKd (AHNAK1, Q09666; [1]): below the threshold
pKd (Inadl_1, Q8NI35; [1]): below the threshold
pKd (LNX1_2, Q8TBB1; [1]): below the threshold
pKd (SHANK1, Q9Y566; [1]): below the threshold
pKd (FRMPD4, Q14CM0; [1]): below the threshold
pKd (Inadl_9, Q8NI35; [1]): below the threshold
pKd (LIMK2, P53671; [1]): below the threshold
pKd (MPDZ_12, O75970; [1]): below the threshold
pKd (Inadl_3, Q8NI35; [1]): below the threshold
pKd (DLG2_2, Q15700; [1]): 3.49
pKd (HTRA4, P83105; [1]): below the threshold
pKd (RAPGEF6, Q8TEU7; [1]): below the threshold
pKd (PTPN13_1, Q12923; [1]): below the threshold
pKd (NHERF3_4, Q5T2W1; [1]): below the threshold
pKd (DLG4_2, P78352; [1]): 3.92
pKd (GRIP1_5, Q9Y3R0; [1]): below the threshold

From paper PMC9482650, “Quantitative fragmentomics allow affinity mapping of interactomes” (Nature Communications, 2022)
